From article PMC3936744 (Nucleic Acids Research, 2013)
Read-outs that look alike come from different tables or passages of the source.

Assays:
[1] = biological target: T1, Dpo4 (Sulfolobus solfataricus P2 DNA polymerase IV) (Saccharolobus solfataricus, UniProt Q97W02); assay: smFRET histogram shift and dissociation rate of the Dpo4-DNA complex; assay type: binding; conditions: 1 mM; incorrect nucleotide; 8Cy3 primer-template; Ca2+, pH 7.5, 21 °C
T1 sequence (Q97W02 1-352): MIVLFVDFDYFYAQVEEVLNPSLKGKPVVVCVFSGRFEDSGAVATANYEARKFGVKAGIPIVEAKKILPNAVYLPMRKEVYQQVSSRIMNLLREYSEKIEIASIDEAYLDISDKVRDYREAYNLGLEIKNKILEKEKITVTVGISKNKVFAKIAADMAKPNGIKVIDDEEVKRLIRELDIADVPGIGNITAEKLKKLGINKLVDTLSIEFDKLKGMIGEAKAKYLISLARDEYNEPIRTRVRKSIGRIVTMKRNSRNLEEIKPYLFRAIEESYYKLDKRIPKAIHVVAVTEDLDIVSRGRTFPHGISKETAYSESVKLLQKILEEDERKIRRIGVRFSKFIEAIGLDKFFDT

[2] = biological target: T2, Dpo4 (P2 DNA polymerase IV), wild type, Cy5-labeled (Sulfolobus solfataricus P2, UniProt Q97W02 1-352); assay: smFRET
T2 sequence: T1 sequence (Q97W02 1-352)

[3] = biological target: T2, Dpo4 (P2 DNA polymerase IV), wild type, …; assay: smFRET; remark: listed apart in the source
[4] = biological target: T2, Dpo4 (P2 DNA polymerase IV), wild type, …; assay: smFRET; remark: listed apart in the source

Molecule: Nc1ccn([C@H]2C[C@H](O)[C@@H](COP(=O)(O)OP(=O)(O)OP(=O)(O)O)O2)c(=O)n1 [dCTP]
- smFRET histogram shift and dissociation rate of the Dpo4-DNA complex [1]: both dCTP and dTTP induced a low FRET shift identical to that observed

B1: 9Cy3 primer-template (dsDNA)
DNA 1: GATGAAAATGAAGG
DNA 2: CTCATAATAGCTATCCTTCATTTTCATC
modifications: amino-C6-dT in template
- binding result [2]: binds

B2: 11Cy3 primer-template (dsDNA)
DNA 1: GATGAAAATGAAGGAT
DNA 2: CTCATAATAGCTATCCTTCATTTTCATC
modifications: amino-C6-dT in template
- binding result [3]: binds

B3: 7Cy3 primer-template (dsDNA)
DNA 1: GATGAAAATGAA
DNA 2: CTCATAATAGCTATCCTTCATTTTCATC
modifications: amino-C6-dT in template
- binding result [3]: binds

B4: 12Cy3 primer-template (dsDNA)
DNA 1: GATGAAAATGAAGGATA
DNA 2: CTCATAATAGCTATCCTTCATTTTCATC
modifications: amino-C6-dT in template
- binding result [3]: binds

B5: 10Cy3 primer-template (dsDNA)
DNA 1: GATGAAAATGAAGGA
DNA 2: CTCATAATAGCTATCCTTCATTTTCATC
modifications: amino-C6-dT in template
- binding result [3]: binds

B6: 8Cy3 primer-template (dsDNA)
DNA 1: GATGAAAATGAAG
DNA 2: CTCATAATAGCTATCCTTCATTTTCATC
modifications: amino-C6-dT in template
- Kd [4]: 30 ± 10 nM
